{"source": "paper PMC8286842", "about": "“The structures of E. coli NfsA bound to the antibiotic nitrofurantoin; to 1,4-benzoquinone and to FMN” (Biochemical Journal, 2021)", "type_in_all_cases": "biochemical, Escherichia coli", "key": {"purified protein [1]": {"substrate": "O=C1CN(/N=C/c2ccc([N+](=O)[O-])o2)C(=O)N1", "experiment": "purified protein", "settings": "FMN active site, parallel to the FMN ring; hydrogen bonds involving Arg […], Lys […], Arg […] and Ser […]; pH 7.0; 25.0 °C"}, "purified protein [2]": {"substrate": "O=C1C=CC(=O)C=C1", "experiment": "purified protein", "settings": "FMN active site, stacked on FMN; O2′ hydroxyl of FMN, backbone NH of Ser […], Gln […], close to Arg […]; a separate, additional quinol ring appears covalently attached at Cys […]; pH 7.0; 25.0 °C"}, "purified protein [3]": {"substrate": "CC1=CC(=O)c2ccccc2C1=O", "experiment": "purified protein", "settings": "FMN; pH 7.0; 25.0 °C"}, "[4]": {"substrate": "NC(=O)N/N=C/c1ccc([N+](=O)[O-])o1", "experiment": "steady-state kinetics of reduction by NADPH, purified enzyme", "settings": "FMN; pH 7.0; 25.0 °C"}, "[5]": {"substrate": "NC(=O)c1cc(N2CC2)c([N+](=O)[O-])cc1[N+](=O)[O-]", "experiment": "steady-state kinetics of reduction by NADPH, purified enzyme", "settings": "FMN; pH 7.0; 25.0 °C"}, "[6]": {"substrate": "NC(=O)C1=CN([C@@H]2O[C@H](COP(=O)(O)OP(=O)(O)OC[C@H]3O[C@@H](n4cnc5c(N)ncnc54)[C@H](OP(=O)(O)O)[C@@H]3O)[C@@H](O)[C@H]2O)C=CC1", "experiment": "steady-state kinetics, purified enzyme (global ping-pong fit with nitrofurantoin)", "settings": "FMN; pH 7.0; 25.0 °C; varied: cofactor"}}, "data": [{"protein": "NfsA (Escherichia coli K-12) (protein, untagged, dimer) MTPTIELICGHRSIRHFTDEPISEAQREAIINSARATSSSSFLQCSSIIRITDKALREELVTLTGGQKHVAQAAEFWVFCADFNRHLQICPDAQLGLAEQLLLGVVDTAMMAQNALIAAESLGLGGVYIGGLRNNIEAVTKLLKLPQHVLPLFGLCLGWPADNPDLKPRLPASILVHENSYQPLDKGALAQYDEQLAEYYLTRGSNNRRDTWSDHIRRTIIKESRPFILDYLHKQGWATR", "values": [{"measurement": "Km", "setting": "purified protein [1]", "value": "20.6 ± 1.6 (Km) µM"}, {"measurement": "kcat", "setting": "purified protein [1]", "value": "81 ± 3", "unit": "s⁻¹"}, {"measurement": "kcat/Km", "setting": "purified protein [1]", "value": "3.9e+06 ± 200000", "unit": "M⁻¹ s⁻¹"}, {"measurement": "Km", "setting": "purified protein [2]", "value": "3 ± 0.4 (Km app) µM"}, {"measurement": "kcat", "setting": "purified protein [2]", "value": "24 ± 0.8", "unit": "s⁻¹"}, {"measurement": "kcat/Km", "setting": "purified protein [2]", "value": "8e+06 ± 800000", "unit": "M⁻¹ s⁻¹"}, {"measurement": "Km", "setting": "purified protein [3]", "value": "11 ± 2 (Km app) µM"}, {"measurement": "kcat", "setting": "purified protein [3]", "value": "9 ± 0.4", "unit": "s⁻¹"}, {"measurement": "kcat/Km", "setting": "purified protein [3]", "value": "820000 ± 80000", "unit": "M⁻¹ s⁻¹"}, {"measurement": "Km", "setting": "[4]", "value": "13 ± 2 (Km) µM"}, {"measurement": "kcat", "setting": "[4]", "value": "29.6 ± 0.9", "unit": "s⁻¹"}, {"measurement": "kcat/Km", "setting": "[4]", "value": "2.3e+06 ± 200000", "unit": "M⁻¹ s⁻¹"}, {"measurement": "Km", "setting": "[5]", "value": "190 ± 20 (Km) µM"}, {"measurement": "kcat", "setting": "[5]", "value": "42 ± 1", "unit": "s⁻¹"}, {"measurement": "kcat/Km", "setting": "[5]", "value": "230000 ± 2000", "unit": "M⁻¹ s⁻¹"}, {"measurement": "Km", "setting": "[6]", "value": "10.9 ± 1.6 (Km) µM"}, {"measurement": "kcat", "setting": "[6]", "value": "81 ± 3", "unit": "s⁻¹"}, {"measurement": "kcat/Km", "setting": "[6]", "value": "7.4e+06 ± 1e+06", "unit": "M⁻¹ s⁻¹"}]}]}
